Reference: publication PMC9364107

Target: SF3B1 residues 147–462 (ULM-containing N-terminal region) (human) (UniProt O75533)
Assay: ITC

SF3B1 residues 147–462 (ULM-containing N-terminal region) (human), sequence (O75533 147-462): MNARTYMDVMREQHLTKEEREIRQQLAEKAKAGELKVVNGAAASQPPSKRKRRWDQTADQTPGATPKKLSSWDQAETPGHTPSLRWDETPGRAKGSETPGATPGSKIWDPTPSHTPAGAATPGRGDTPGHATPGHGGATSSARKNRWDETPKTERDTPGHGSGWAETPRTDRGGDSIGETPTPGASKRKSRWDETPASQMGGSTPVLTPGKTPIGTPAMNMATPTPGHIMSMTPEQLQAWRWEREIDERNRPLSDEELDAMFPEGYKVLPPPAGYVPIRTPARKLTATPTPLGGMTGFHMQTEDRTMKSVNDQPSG

stoichiometry N: 2
Substance: U2AF2^12UL (nearly full-length U2AF2, residues 141–471) (domain or fragment)
